B1: BtGH97b (Bacteroides thetaiotaomicron VPI-5482) (protein)
chain: QKQFTLASPDGNLKTTITIGDRLTYDITCNGRQILTPSPISMTLDNGTVWGENAKLSGTSRKSVDEMIPSPFYRASELRNHYNGLTLRFKKDWNVEFRAYNDGIAYRFVNQGKKPFRVVTEVSDYCFPSDMTASVPYVKSGKDGDYNSQFFNSFENTYTTDKLSKLNKQRLMFLPLVVDAGDGVKVCITESDLENYPGLYLSASEGANRLSSMHAPYPKRTVQGGHNQLQMLVKEHEDYIAKVDKPRNFPWRIAVVTTTDKDLAATNLSYLLGAPSRMSDLSWIKPGKVAWDWWNDWNLDGVDFVTGVNNPTYKAYIDFASANGIEYVILDEGWAVNLQADLMQVVKEIDLKELVDYAASKNVGIILWAGYHAFERDMENVCRHYAEMGVKGFKVDFMDRDDQEMTAFNYRAAEMCAKYKLILDLHGTHKPAGLNRTYPNVLNFEGVNGLEQMKWSSPSVDQVKYDVMIPFIRQVSGPMDYTQGAMRNASKGNYYPCYSEPMSQGTRCRQLALYVVFESPFNMLCDTPSNYMREPESTAFIAEIPTVWDESIVLDGKMGEYIVTARRKGDVWYVGGITDWSARDIEVDCSFLGDKSYHATLFKDGVNAHRAGRDYKCESFPIKKDGKLKVHLAPGGGFALKIK
B2: BtGH97a (Bacteroides thetaiotaomicron VPI-5482) (protein)
chain: QQKLTSPDNNLVMTFQVDSKGAPTYELTYKNKVVIKPSTLGLELKKEDNTRTDFDWVDRRDLTKLDSKTNLYDGFEVKDTQTATFDETWQPVWGEEKEIRNHYNELAVTLYQPMNDRSIVIRFRLFNDGLGFRYEFPQQKSLNYFVIKEEHSQFGMNGDHIAFWIPGDYDTQEYDYTISRLSEIRGLMKEAITPNSSQTPFSQTGVQTALMMKTDDGLYINLHEAALVDYSCMHLNLDDKNMVFESWLTPDAKGDKGYMQTPCNTPWRTIIVSDDARNILASRITLNLNEPCKIADAASWVKPVKYIGVWWDMITGKGSWAYTDELTSVKLGETDYSKTKPNGKHSANTANVKRYIDFAAAHGFDAVLVEGWNEGWEDWFGNSKDYVFDFVTPYPDFDVKEIHRYAARKGIKMMMHHETSASVRNYERHMDKAYQFMADNGYNSVKSGYVGNIIPRGEHHYGQWMNNHYLYAVKKAADYKIMVNAHEATRPTGICRTYPNLIGNESARGTEYESFGGNKVYHTTILPFTRLVGGPMDYTPGIFETHCNKMNPANNSQVRSTIARQLALYVTMYSPLQMAADIPENYERFMDAFQFIKDVALDWDETNYLEAEPGEYITIARKAKDTDDWYVGCTAGENGHTSKLVFDFLTPGKQYIATVYADAKDADWKENPQAYTIKKGILTNKSKLNLHAANGGGYAISIKEVKDKSEAKGLKRL

What was measured:
Conditions in all cases: Ca2+
purified protein = substrate: OC[C@H]1O[C@H](OC[C@H]2OC(O)[C@H](O)[C@@H](O)[C@@H]2O)[C@H](O)[C@@H](O)[C@H]1O; test: purified protein
[1] = substrate: O=[N+]([O-])c1ccc(O[C@H]2O[C@H](CO)[C@H](O)[C@H](O)[C@H]2O)cc1; test: Michaelis-Menten kinetics (KM) and 1H NMR of hydrolysis; assay type: biochemical, Bacteroides thetaiotaomicron
[2] = substrate: OC[C@H]1O[C@H](O[C@H]2[C@H](O)[C@@H](O)C(O)O[C@@H]2CO)[C@H](O)[C@@H](O)[C@@H]1O; test: stopped glucose oxidase/peroxidase assay, Michaelis-Menten (KM) with substrate inhibition; assay type: biochemical, Bacteroides thetaiotaomicron
[3] = substrate: O=[N+]([O-])c1ccc(O[C@H]2O[C@H](CO)[C@@H](O)[C@H](O)[C@H]2O)cc1; test: Michaelis-Menten kinetics (KM) and 1H NMR of hydrolysis; assay type: biochemical, Bacteroides thetaiotaomicron

Protein | Km (purified protein) [µM] | kcat (purified protein) [s⁻¹] | kcat/Km (purified protein) [M⁻¹ s⁻¹] | Km [1] [µM] | kcat [1] [s⁻¹] | kcat/Km [1] [M⁻¹ s⁻¹] | Km [2] [µM] | kcat [2] [s⁻¹] | kcat/Km [2] [M⁻¹ s⁻¹] | Km [3] [µM] | kcat [3] [s⁻¹] | kcat/Km [3] [M⁻¹ s⁻¹]
B1 | 1500 ± 170 | 0.015 | 11 | 230 ± 10 | 91 ± 2 | 391000 |  |  |  |  |  | 
B2 |  |  |  |  |  |  | 2000 ± 400 | 0.015 ± 0.002 | 7.2 | 85 ± 9 | 53 ± 2 | 620000
